# Test results reported in PMC3338718, “Characterization of a Novel ArsR-Like Regulator Encoded by Rv2034 in Mycobacterium tuberculosis”.
# Changes are numbered by the printed parent chain.
# B1: Rv2034BSmu2 (dsDNA)
# DNA 1: GGAAGAATATGGCATTCACTAAACTGCATGTTCGTGTCCA
# DNA 2: TGGACACGAACATGCAGTTTAGTGAATGCCATATTCTTCC
# B2: Rv2034BSmu5 (dsDNA)
# DNA 1: B1 DNA 1 with A23C, C24A, T25G, G30A
# DNA 2: B1 DNA 2 with C11T, A16C, G17T, T18G
# B3: Rv2034BSmu4 (dsDNA)
# DNA 1: AGAGTTGATACCGTAAGTTAGCACTTACGGACTTAAGGTT
# DNA 2: AACCTTAAGTCCGTAAGTGCTAACTTACGGTATCAACTCT
# B4: Rv2034BSmu3 (dsDNA)
# DNA 1: GGAAGAATATCCGTAAGTCTGATAAAACTTACGGTTCGTGTCCA
# DNA 2: TGGACACGAACCGTAAGTTTTATCAGACTTACGGATATTCTTCC
# What was measured:
# [1] = molecular target: T1, Rv2034AE A32G;E35G (Mycobacterium tuberculosis) (UniProt O53478); assay: EMSA
# T1 sequence: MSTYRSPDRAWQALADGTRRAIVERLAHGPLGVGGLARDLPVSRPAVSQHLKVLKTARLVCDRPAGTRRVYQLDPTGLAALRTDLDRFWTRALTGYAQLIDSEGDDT
# [2] = molecular target: T2, Rv2034C61A C61A (Mycobacterium tuberculosis) (UniProt O53478); assay: EMSA
# T2 sequence: T1 sequence with G32A, G35E, C61A
# [3] = molecular target: T3, Rv2034 (ArsR family regulator) (Mycobacterium tuberculosis, UniProt O53478 1-107); assay: EMSA; up to 1.2 uM protein; details: protein: recombinant, tags: N-terminal His6 (pET28a), chain copies: 2, label: 5' label (32P or FITC)
# T3 sequence: T1 sequence with G32A, G35E
# [4] = molecular target: T3, Rv2034 (ArsR family regulator); assay: EMSA; 0.1-1.2 uM protein; details: protein: recombinant, tags: N-terminal His6 (pET28a), chain copies: 2, label: 5' label (32P or FITC)
molecule,measurement,setting,value
AATTTCTAGAGCCTGCGGCAAGCACGTCGGTTCCATAGCGATCCAGCACGCCGCAATACTAGGGAGCCTCTCTGCCGGTCATCGCCGCGACGCGCCGCATGGGTTCTCGGAAAATGCTTGTACCAGTCGACTTTCCGGCGGGCCAACGTCGCCAACCGATACTCGGCTCCAACGCCATGGGTGACGGGATGCCCGGATCACGTGTCACACCACCCGCGCACCCTTGCGGAAGAATATCCGTAAGTCTAAACTTACGGTTCGAATTCCCGG (double strand) [Rv2034p promoter],binding,[1],no binding
same,binding,[2],no binding
B1,binding result,[3]; blunt,no binding
B2,binding result,[3],no binding
B3,binding result,[4],binds
B4,binding result,[4]; blunt,binds
